This is an account of results in patent publication US20260209316A1.

Like-named read-outs stand apart in the source and are kept apart here.

In assay [1] the target is thermolysin-cleaved SUDV GP (GP(S)THL) (Sudan virus (SUDV)) (UniProt Q7T9D9). The assay can be described thus: BLI; Sudan GPTHL on sensor, NPC1-dC, then NPC1-dC (self-competition). For orientation: BLI is a label-free optical method that tracks binding on a fibre tip over time.
For assay [2] the target is unchanged. The description is as above. This is another data set of the same source.

Niemann-Pick disease, type C1-domain C (NPC1-dC), sequence (O15118 373-620 limits assumed): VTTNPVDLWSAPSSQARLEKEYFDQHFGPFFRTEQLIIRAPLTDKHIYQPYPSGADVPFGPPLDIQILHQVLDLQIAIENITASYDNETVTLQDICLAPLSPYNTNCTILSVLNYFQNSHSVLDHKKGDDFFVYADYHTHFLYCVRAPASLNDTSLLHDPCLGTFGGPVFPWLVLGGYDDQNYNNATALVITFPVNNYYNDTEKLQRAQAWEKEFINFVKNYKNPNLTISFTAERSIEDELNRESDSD

As for “Niemann-Pick disease, type C1-domain C (NPC1-dC) (from UniProt O15118 373-620) (receptor)”, the percent blocking of NPC1-dC binding in assay [1] amounted to 79%; in assay [2], 72%.
